Measurements published in US20050064507A1, “Determining kinase specificity” (priority 2003, published 2005).

Experiments:
[1] = biological target: T1, PKC-delta (Homo sapiens, UniProt Q05655); assay: In vitro kinase assay: peptide phosphorylation by PKC-delta; assay type: biochemical
T1 construct: purchased Calbiochem
In short: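 Biotin-Lys-dansyl-Lys-Pro-Pro-Gly-linked proteomic peptides (12–21-residue core) phosphorylated by PKC-delta in HEPES/Triton/CaCl2/MgCl2 buffer with phosphatidyl serine and PMA, 100 μM [γ-32P]ATP, 30° C., ~10 min, stoichiometry ≤5%; streptavidin-plate capture. Signal normalized as % of best peptide substrate.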

[2] = biological target: T2, PKC-epsilon (Homo sapiens, UniProt Q02156); assay: In vitro kinase assay: peptide phosphorylation by PKC-epsilon; assay type: biochemical; conditions: peptide concentration 1 uM
T2 construct: purchased Calbiochem
T2 sequence (Q02156 1-737): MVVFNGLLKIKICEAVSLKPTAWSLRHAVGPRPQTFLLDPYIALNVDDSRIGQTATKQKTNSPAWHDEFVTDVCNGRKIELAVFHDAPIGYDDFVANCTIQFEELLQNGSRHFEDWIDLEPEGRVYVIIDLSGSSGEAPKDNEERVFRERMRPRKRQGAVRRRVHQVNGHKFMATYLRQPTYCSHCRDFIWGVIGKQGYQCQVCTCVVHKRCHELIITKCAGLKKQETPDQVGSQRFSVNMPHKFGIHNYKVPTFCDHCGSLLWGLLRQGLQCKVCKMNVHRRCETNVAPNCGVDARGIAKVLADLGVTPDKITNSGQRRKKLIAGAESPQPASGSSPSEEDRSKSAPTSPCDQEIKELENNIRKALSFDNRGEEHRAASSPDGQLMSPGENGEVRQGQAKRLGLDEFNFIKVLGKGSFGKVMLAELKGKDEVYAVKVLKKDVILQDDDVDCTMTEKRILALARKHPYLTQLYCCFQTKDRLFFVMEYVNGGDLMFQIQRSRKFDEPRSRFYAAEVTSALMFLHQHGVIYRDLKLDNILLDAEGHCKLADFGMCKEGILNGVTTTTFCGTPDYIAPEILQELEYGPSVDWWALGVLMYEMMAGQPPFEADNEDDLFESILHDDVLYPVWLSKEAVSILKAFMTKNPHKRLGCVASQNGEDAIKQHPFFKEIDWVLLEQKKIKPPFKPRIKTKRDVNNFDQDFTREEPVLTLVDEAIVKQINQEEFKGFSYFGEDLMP
Protocol: Catalytically active preparations of the kinases of interest were either purchased or prepared. Purchased and tested active kinase preparations including the following: PKC-alpha, PKC-delta, PKC-epsilon, PKC-zeta, PKC-mu, PKA, PKG from Calbiochem, ROK alpha/ROCK-II, active from Upstate Biotechnology, and AKT1 from Panvera.
The conditions of the kinase assay and the amount of active kinase used varied with the kinase and with the accuracy needed. For a typical experiment, 5-20 ng of kinase was used per well and each peptide pool was assayed in duplicate wells. Note that the absolute amount of kinase used was not usually a critical parameter, because the desired information related to specificity of the kinase not its absolute activity, and robustness of the assay depends on comparisons of the same amount of kinase on different peptides. The combination of kinase concentration and assay duration was modified to assure that the stoichiometry of peptide phosphorylation never exceeded 5%. The choice of kinase buffer depended on the kinase being analyzed. For studies of PKC, 100 mM HEPES, 0.05% Triton-X100, 1 mM CaCl2, 20 mM MgCl2, 0.2 mg/ml phosphatidyl serine (Avanti Polar Lipids), PMA 100 ng/ml was typically used. The lipid stock was prepared by transferring 3 mg phosphatidyl serine into iced mixture of 450 μl water plus 50 μl of 10% Triton-X100, sonicating 10 times on ice for 1 sec each.
The kinase reaction mixture was assembled by sequential addition to a tube held on ice of: 5 μl peptide (100 μM for final concentration of 10 μM), 15 μl of kinase (typically 5 ng/well, in appropriate kinase buffer), 30 μl of ATP (1 uCi/well of ^32P-gamma ATP in a stock of 167 μM cold ATP in the kinase buffer; for final concentration for 100 μM ATP). The mixture was rapidly warmed to desired reaction temperature (30° C. for PKC) and incubated for the desired duration (usually 10 minutes). The kinase assay was terminated by transfer to 4° C. water batch, and rapid addition of an equal volume (50 μl) of stop solution [0.1M ATP+0.1M EDTA in water, pH 8].
The peptides were then captured from the reaction mixture by transfer to a Reacti-Bind Streptavidin High Binding Capacity Coated Plates (HBC) (Pierce Biotechnology) as follows. The HBC plates were pre-rinsed three times with PBS/Tween PBS/Tween20 0.05% (PBS/Tween). Part of all of the reaction mixture was then transferred wells of a HBC plate pre-filled with 90 μl of phosphate-buffered saline (PBS); typically each aliquots of each phosphorylation reaction were transferred to duplicate HBC plates to assure accuracy by additional replication
For kinase assays done at the standard peptide concentration of 10 μM, the peptide concentration in the reaction mixture becomes 5 μM after addition of the stop solution; consequently 10 μl of the reaction (50 pMoles of peptide) was transferred to the HBC plate. More generally, the amount of reaction mixture transferred was estimated to be about 50 pMoles of peptide. […] The HBC plates were incubated for 0.5 to 1.5 hr at room temperature for complete binding of biotinylated peptides to plate-bound streptavidin. The HBC plates were then washed extensively with PBS/Tween. Five washes were done routinely and additional wash steps were added if the wash solution removed from the plate had measurable radioactivity as detected using a Geiger counter. This step is essential to obtaining a good the signal to noise ratio because the fraction of radioactivity incorporated in the peptides was a tiny fraction of the total in the reaction mixture. The wells were air-dried. A volume of 40-50 μl of microScint-20 (Packard Instruments) was added to each well. The plates were covered with stick-on film sheet. Radioactive emissions were measured in a TopCount NXT Microplate Scintillation and Luminescence Counter (Packard Instruments). Typically samples were counted for 5 minutes (or more) to improve the signal to noise ratio when counts were low. […]

T1 sequence (Q05655 whole entry): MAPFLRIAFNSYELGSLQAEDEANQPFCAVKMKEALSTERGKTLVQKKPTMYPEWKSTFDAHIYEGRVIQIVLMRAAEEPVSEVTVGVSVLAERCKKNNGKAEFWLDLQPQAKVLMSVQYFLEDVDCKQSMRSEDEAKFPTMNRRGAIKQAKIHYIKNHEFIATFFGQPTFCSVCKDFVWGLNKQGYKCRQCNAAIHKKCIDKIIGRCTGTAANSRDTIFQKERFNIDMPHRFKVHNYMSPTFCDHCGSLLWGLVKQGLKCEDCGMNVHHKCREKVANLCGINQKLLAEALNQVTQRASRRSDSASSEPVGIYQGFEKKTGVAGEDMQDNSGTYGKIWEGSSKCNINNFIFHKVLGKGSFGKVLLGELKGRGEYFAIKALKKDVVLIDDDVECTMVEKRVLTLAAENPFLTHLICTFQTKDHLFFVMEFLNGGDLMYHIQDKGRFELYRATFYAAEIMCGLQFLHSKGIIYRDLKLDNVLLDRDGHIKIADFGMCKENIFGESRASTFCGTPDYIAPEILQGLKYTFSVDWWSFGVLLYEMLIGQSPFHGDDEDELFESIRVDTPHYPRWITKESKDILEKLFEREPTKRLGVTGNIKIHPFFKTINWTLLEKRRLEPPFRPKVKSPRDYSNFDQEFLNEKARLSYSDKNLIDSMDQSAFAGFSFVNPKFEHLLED

| Substance | phosphorylation by PKC-delta ([1]; peptide concentration 1 uM) | phosphorylation by PKC-delta ([1]; peptide concentration 10 uM) | phosphorylation by PKC epsilon [2] |
| --- | --- | --- | --- |
| 114 (KKKKRASFKRKSSKKG) [compound 114] | 80 | 100 | 100 |
| 115 (NRKKKRTSFKRKA) [compound 115] | 94 | 99 | 91 |
| 116 (EEGTFRSSIRRLSTRRR) [compound 116] | 75 | 41 | 92 |
| 117 (NRKKKRTSFKRKA) [compound 117] | 100 | 79 | 67 |
| 118 (RPQNTLKASKKKKRASFKRK) [compound 118] | 73 | 60 | 89 |
| 119 (KKRFSFKKSFKLSGFSFKKN) [compound 119] | 42 | 16 | 81 |
| 120 (AKRRRLSSLRASTSK) [compound 120] | 64 | 32 | 56 |
| 121 (LRRRSLRRSNSISKSPGP) [compound 121] | 80 | 53 | 49 |
| 122 (RAITSTLASSFKRRR) [compound 122] | 55 | 24 | 72 |
| 123 (KKRFSFKKSFKLSGFSFKKN) [compound 123] | 45 | 22 | 67 |
| 124 (PRLIRRGSKKRPAR) [compound 124] | 69 | 43 | 49 |
| 125 (PLKEKKRERKTSSKSSVRKR) [compound 125] | 46 | 36 | 48 |
| 126 (KAIKAIEGGQKFARKSTRRS) [compound 126] | 47 | 43 | 69 |
| 127 (SQVQKQRSAGSFKRNSIKKI) [compound 127] | 52 | 33 | 32 |
| 128 (QQVDRERPHVRRRRGTFKRS) [compound 128] | 46 | 57 | 32 |
| 129 (VQRHRSMRKTFARYLSFRRD) [compound 129] | 32 | 14 | 65 |
| 130 (EYLERRASRRRAV) [compound 130] | 46 | 20 | 46 |
| 131 (WKGKRRSKARKKRK) [compound 131] | 38 | 29 | 43 |
| 132 (GFLNEPLSSKSQRRKSLKLK) [compound 132] | 41 | 47 | 47 |
| 133 (LEKRGMLGKRPRRKSSRRKK) [compound 133] | 46 | 52 | 31 |
| 134 (RSRSRSRSKSKDKRKSRKRS) [compound 134] | 44 | 16 | 32 |
| 135 (KKKFRTPSFLKKSKK) [compound 135] | 40 | 25 | 27 |
| 136 (RARRDSLKKIEIW) [compound 136] | 41 | 23 | 33 |
| 137 (PSKSPSKKKKKFRTPSFLKK) [compound 137] | 38 | 16 | 32 |
| 138 (EYLERRASRRRAV) [compound 138] | 49 | 28 | 27 |
| 139 (RPTPGDGEKRSRIKKSKKRK) [compound 139] | 31 | 24 | 24 |
| 140 (TELEGGFSRQRKRKLSFRRR) [compound 140] | 44 | 49 | 27 |
| 141 (VTDSQKRREILSRRPSYRKI) [compound 141] | 43 | 21 | 31 |
| 142 (ERHVAQKKSRLRRRASQLKI) [compound 142] | 30 | 36 | 28 |
| 143 (VRYTPYTISPYNRKGSFRKQ) [compound 143] | 33 | 32 | 21 |
